Assay [1] deals with FUS^WT released from GST-TEV-FUS by TEV protease (UniProt P35637).
Assay [2] concerns the target FUS released from 6xHis-MBP-FUS by TEV protease (UniProt P35637).
Assay [3] addresses FUS^WT released from GST-TEV-FUS by TEV protease (UniProt P35637). The source holds these as a separate data set.

Take “Kapβ2 H1-H13 (residues 1–604) (from UniProt Q92973-2 1-604) (domain or fragment)”: the FUS fibrillization left (normalised turbidity at 395 nm; 3 μM FUS, TEV protease) at the highest concentration of H1-H13 tested in assay [1] came to 40%. Also, the reduction of number and total area of preformed FUS:RNA droplets (1 μM FUS, 1 μM U40 RNA; 0.75 μM H1-H13, 2 h) in assay [2] is 44%. In assay [3], the reduction of turbidity of preformed FUS fibrils after 80 min at the highest concentration of H1-H13 tested came out at 50%.

As for “Karyopherin-β2 (Kapβ2), full-length, wild type (from UniProt Q92973-2 1-890) (natural protein)”, the reduction of number and total area of preformed FUS:RNA droplets (1 μM FUS, 1 μM U40 RNA; 0.75 μM Kapβ2, 2 h) in assay [2] was 100%.
